Reference: patent US20210277098A1 (MITSUBISHI TANABE PHARMA, published 2021)
No end group written: not given here. *: point of attachment. Biotin = O=C1N[C@H]2[C@H](CS[C@H]2CCCCC(=O)*)N1

T1: mouse RGMa protein (R&D systems, 2458-RG) (mouse) (UniProt Q6PCX7)
T1 sequence: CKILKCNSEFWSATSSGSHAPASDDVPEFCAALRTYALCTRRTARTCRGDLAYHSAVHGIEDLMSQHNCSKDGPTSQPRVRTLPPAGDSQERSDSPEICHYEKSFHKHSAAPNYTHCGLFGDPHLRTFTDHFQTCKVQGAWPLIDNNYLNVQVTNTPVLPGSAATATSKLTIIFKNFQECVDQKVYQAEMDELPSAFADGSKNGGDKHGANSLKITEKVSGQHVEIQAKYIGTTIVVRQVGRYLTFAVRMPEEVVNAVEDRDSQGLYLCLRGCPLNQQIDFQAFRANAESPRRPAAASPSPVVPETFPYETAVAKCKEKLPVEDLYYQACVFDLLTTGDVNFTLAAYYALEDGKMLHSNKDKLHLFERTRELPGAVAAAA

T2: C-terminal domain of human RGMa protein (prepared in Example 1), Pro 169 to Gly 422 with C-terminal histidine … (human, UniProt Q96B86 169-422)
T2 construct: Secreted from CHO cells and purified on a nickel column; also called Human RGMa C-terminal domain; recombinant human RGMa protein; not shown: histidine tag at the C terminus
T2 sequence: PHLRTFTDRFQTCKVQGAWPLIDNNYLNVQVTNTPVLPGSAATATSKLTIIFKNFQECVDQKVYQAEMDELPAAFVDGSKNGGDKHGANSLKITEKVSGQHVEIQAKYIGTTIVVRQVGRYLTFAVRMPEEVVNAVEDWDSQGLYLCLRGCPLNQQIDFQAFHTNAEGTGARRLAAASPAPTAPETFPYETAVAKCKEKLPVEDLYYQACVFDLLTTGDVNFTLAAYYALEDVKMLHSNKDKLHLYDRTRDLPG

T3: Human RGMa protein (R&D systems, 2459-RM) (human, UniProt Q96B86 48-422, limits assumed)
T3 construct: Bought protein; also called Recombinant RGMa protein
T3 sequence: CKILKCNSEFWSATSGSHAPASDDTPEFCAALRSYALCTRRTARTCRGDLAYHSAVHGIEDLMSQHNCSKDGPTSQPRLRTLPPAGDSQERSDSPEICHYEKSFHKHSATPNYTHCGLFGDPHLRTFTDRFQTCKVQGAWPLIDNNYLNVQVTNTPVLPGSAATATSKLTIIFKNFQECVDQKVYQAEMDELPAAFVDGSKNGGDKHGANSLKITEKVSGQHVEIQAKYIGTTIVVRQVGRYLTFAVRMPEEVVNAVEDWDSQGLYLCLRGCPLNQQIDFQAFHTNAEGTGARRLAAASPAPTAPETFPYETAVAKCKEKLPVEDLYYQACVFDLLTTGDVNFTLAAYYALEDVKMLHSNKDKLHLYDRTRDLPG

T4: biotinylated SGSG-spacer peptide of human RGMa Asn 322 to Thr 332 (human)
T4 construct: One of 83 peptides of 11 residues, immobilised on avidin-coated plates
T4 peptide: Biotin-SGSGNQQIDFQAFHT

T5: biotinylated SGSG-spacer peptide of human RGMa Lys 367 to Ala 377 (human)
T5 construct: One of 83 peptides of 11 residues, immobilised on avidin-coated plates
T5 peptide: Biotin-SGSGKLPVEDLYYQA

T6: biotinylated SGSG-spacer peptide of human RGMa Ile 325 to Glu 335 (human)
T6 construct: One of 83 peptides of 11 residues, immobilised on avidin-coated plates
T6 peptide: Biotin-SGSGIDFQAFHTNAE

T7: biotinylated SGSG-spacer peptide of human RGMa Val 301 to Gly 311 (human)
T7 construct: One of 83 peptides of 11 residues, immobilised on avidin-coated plates
T7 peptide: Biotin-SGSGVNAVEDWDSQG

T8: biotinylated SGSG-spacer peptide of human RGMa Glu 298 to Asp 308 (human)
T8 construct: One of 83 peptides of 11 residues, immobilised on avidin-coated plates
T8 peptide: Biotin-SGSGEEVVNAVEDWD

B1: recombinant mouse antibody r116A3 (antibody, mouse IgG2b, kappa, V domains shown)
VH: EVKLEESGGGLVQPGGSMKLSCAASGFTFSDAWMDWVRQSPEKGLEWVAEIRSKANNHATYYAESVKGRFTISRDDSKRSVYLQMNNLRAEDTGIYYCTRRDGAYWGQGTLVTVSA
VL: DIQMTQTTSSLSASLGDRVTISCRASQDISSYLNWYQQKPDGTVKLLIYYTSRLHSGVPSRFSGSGSGTDYSLTISNLEQEDIATYFCQQLNTLPWTFGGGTKLEIKR
notes: Recombinant form of B5.116A3 expressed in HEK293F cells
B2: mouse anti-human RGMa monoclonal antibody B5.116A3 (antibody, mouse IgG2b, kappa, V domains shown)
VH: B1 VH
VL: B1 VL
B3: recombinant mouse antibody r70E4 (antibody, mouse IgG2b, kappa, V domains shown)
VH: DVKLQESGPGLVKPSQSLSLTCSVTGYSITTSYYWNWIRQFPGNKLEWMGYISYDGTNNYNPSLKNRISITRDTSKNQFFLRLNSVTTEDTATYYCAGSFGYSQGTLVTVSA
VL: DVVMTQTPLSLPVSLGDQASISCRSSQSLVHSNGNTYLHWYLQRPGQSPKLLIYKVSNRFSGVPDRFSGSGSGTDFTLKISRVEAEDLGLYFCSQSTHVPYTFGGGTKLEIKR
notes: Recombinant form of B5.70E4 expressed in HEK293F cells

Experiments:
[1] = target: T1, mouse RGMa protein (R&D systems, 2458-RG) (mouse); assay: SPR (Proteon XPR36), antigen amine-coupled on a GLC chip, antibody as analyte
[2] = target: Human RGMa protein (R&D systems, 2459-RM) (human) (UniProt Q96B86); assay: as above
[3] = target: T1, mouse RGMa protein (R&D systems, 2458-RG) (mouse); assay: SPR (Proteon XPR36), ratio of Kd values against r5F9
[4] = target: T2, C-terminal domain of human RGMa protein …; assay: SPR (Proteon XPR36), antigen amine-coupled on a GLC chip, antibody as analyte
Method: (§1) The affinity of the test antibodies (r116A3 and r70E4) and r5F9 (Comparative Example) for RGMa protein were measured by the surface plasmon resonance (SPR) method using Proteon XPR36 (Bio-Rad).
(§2) Human RGMa protein (R&D Systems, 2459-RM), the C-terminal domain of human RGMa protein (prepared in Example 1) or mouse RGMa protein (R&D Systems, 2458-RG) diluted to 10 μg/mL with 10 mM acetate buffer (pH4.5) was immobilized on a GLC sensor chip by amine coupling method.

[5] = target: T3, Human RGMa protein (R&D systems, …); assay: as above
Method: as §1, §2

[6] = target: T4, biotinylated SGSG-spacer peptide of …; assay: peptide scanning ELISA, biotinylated peptides on avidin-coated plates
Method: (§3) Epitopes to which the antibodies bind were determined by the peptide scanning method. A total of 83 kinds of peptides were synthesized by fusing the N-terminal side of the amino acid sequences consisting of 11 consecutive residues shifted by 3 residues contained in Arg 172 to Ala 424 of the human RGMa protein (SEQ ID NO: 1 in Sequence Listing) with a spacer sequence (SGSG) with biotinylated N terminus (SEQ ID NO: 46 in Sequence Listing). After immobilizing the peptides on avidin-coated plates, the test antibodies (B5.116A3 and B5.70E4) were allowed to react. Subsequently, a peroxidase-labeled rabbit anti-mouse Ig antibody (Dako, P026002) was allowed to react. After a substrate solution was added and color developed for a certain time, the absorbance was measured with a plate reader.

[7] = target: T5, biotinylated SGSG-spacer peptide of …; assay: as above
Method: as §3

[8] = target: T6, biotinylated SGSG-spacer peptide of …; assay: as above
Method: as §3

[9] = target: T7, biotinylated SGSG-spacer peptide of …; assay: as above
Method: as §3

[10] = target: T8, biotinylated SGSG-spacer peptide of …; assay: as above
Method: as §3

| Molecule | Kd [1] [nM] | Kd [2] [nM] | times stronger binding than r5F9 [3] [times] | Kd [4] [nM] | Kd [5] [nM] | binding result [6] | binding result [7] | binding result [8] | binding result [9] | binding result [10] |
| --- | --- | --- | --- | --- | --- | --- | --- | --- | --- | --- |
| recombinant rat mouse chimeric antibody r5F9 (Comparative Example) | 8.98 | 1.59 | – | – | – | – | – | – | – | – |
| B1 | 0.201 | – | 44 | 0.0568 | 0.0487 | – | – | – | – | – |
| B2 | – | – | – | – | – | binds | binds | binds | binds | binds |
| B3 | 174 | – | – | 1.12 | 2.43 | – | – | – | – | – |
